From PMC3052533, “Amino acid changes within the Bunyamwera virus nucleocapsid protein differentially affect the mRNA transcription and RNA replication activities of assembled ribonucleoprotein templates” (The Journal of General Virology, 2011) come the findings set out here.

B1: Bunyamwera virus (BUNV) nucleocapsid (N) protein, wild type (natural protein)
chain: MIELEFHDVAANTSSTFDPEVAYANFKRVHTTGLSYDHIRIFYIKGREIKTSLAKRSEWEVTLNLGGWKITVYNTNFPGNRNNPVPDDGLTLHRLSGFLARYLLEKMLKVSEPEKLIIKSKIINPLAEKNGITWNDGEEVYLSFFPGSEMFLGTFRFYPLAIGIYKVQRKEMEPKYLEKTMRQRYMGLEAATWTVSKLTEVQSALTVVSSLGWKKTNVSAAARDFLAKFGINM
notes: nucleocapsid (N) protein of Bunyamwera virus, expressed from plasmid pET-BUN-N (Rodgers et al., 2006); predicted monomer mass 28.8 kDa; also called BUNV N protein; WT
B2: BUNV N protein R40A (natural protein, Bunyamwera virus, UniProt P16495 1-233, looked up)
chain: B1 chain with R40A
notes: nucleocapsid (N) protein of Bunyamwera virus, from modified plasmid pET-BUN-N, single alanine substitution
B3: BUNV N protein K50A (natural protein, Bunyamwera virus, UniProt P16495 1-233, looked up)
chain: B1 chain with K50A
notes: as for B2
B4: BUNV N protein R101A (natural protein, Bunyamwera virus, UniProt P16495 1-233, looked up)
chain: B1 chain with R101A
notes: as for B2
B5: BUNV N protein K55A (natural protein, Bunyamwera virus, UniProt P16495 1-233, looked up)
chain: B1 chain with K55A
notes: as for B2
B6: BUNV N protein R94A (natural protein, Bunyamwera virus, UniProt P16495 1-233, looked up)
chain: B1 chain with R94A
notes: nucleocapsid (N) protein of Bunyamwera virus, from modified plasmid pET-BUN-N, single alanine substitution; monomers and tetramers equally abundant
B7: BUNV N protein K179A (natural protein, Bunyamwera virus, UniProt P16495 1-233, looked up)
chain: B1 chain with K179A
notes: as for B2

Substitutions are numbered along the chain they refer to.

The data set deals with the molecule itself. In words: SEC; Superdex S200 column, purified N proteins analysed immediately following purification; elution compared with molecular mass standards; monomer and tetramer peaks. (Size exclusion chromatography separates by hydrodynamic size, large species first.)
With B1, the stoichiometry N (commonly the number of molecules, sites or subunits per partner or assembly) was determined as 4.
As for B2, the binding result is listed as “binds”.
With B3, the binding result is “binds”.
With B4, the binding result is “binds”.
As to B5, the binding result is reported as “binds”.
B6: the “stoichiometry N” value turned out to be 4.
For the protein B7, the binding result is reported as “binds”.
